According to PMC10213618 (Frontiers in Immunology, 2023):
Primed or numbered codes have the meaning given here. Where no end group is shown, it is not given here. [ ]: non-standard residue; d: D form. PEG2′ = diethylene glycolate linker

B1: FabT (Fab, V domains shown)
VH: EVQLVESGGGLVKPGGSLRLSCAASGYTFTDNYIHWVRQAPGKGLEWIGYINPSSAYAHYNEKFKTRFTISVDKAKNSAYLQMNSLRAEDTAVYYCTRRYYSAMPFAYWGQGTLVTVSS
VL: DIQMTQSPSSLSASVGDRVTITCRASEDIYSGLAWYQQKPGKVPKLLIYDSSTLHTGVPSRFSGTGSGTDYTLTISSLQPEDVATYFCQQNYDFPLTFGQGTKLEIK
notes: humanised VH with human gamma1 CH1; humanised VL with human C kappa; also called parent FabT; unmodified FabT fragment; source: CHO-S XE, transient, purified (Protein G, SEC)
B2: aMSA-HAP chimeric peptide (peptide)
chain: IHVTIPADLWDWINK[PEG2′]TCPDGQRDRGGCSGPYSCGGDNCCAYAAASVYRGYSCKDTYEW
modifications: disulfide (positions not given here); not fully specified

Key:
human TNFα = biological target: T1, human TNFα (Homo sapiens, UniProt P01375); assay: SPR; Biacore 8K+, multi-cycle kinetics, 25°C; Fab captured by immobilised anti-human Fab antibodies; serial dilutions of TNFα injected in HBS-EP+; 1:1 binding model; details: both partners purified
T1 construct: human tumour necrosis factor alpha, UniProt P01375

mouse serum albumin = biological target: T2, mouse serum albumin (mouse, UniProt P07724 25-608); assay: SPR; HSA or MSA amine-coupled to a CM5 chip (110-270 RU); peptides 1000 nM to 15.5 nM flowed in HBS-EP+; multi-cycle kinetics, 1:1 binding model; details: both partners purified
T2 construct: mouse serum albumin; also called MSA

IL-17A [1] = biological target: T3, IL-17A (UniProt Q16552 24-155); assay: SPR; IL-17A amine-coupled to a CM5 chip (110-270 RU); chimeric peptides 1000 nM to 15.5 nM flowed in HBS-EP+; steady state fitting; details: both partners purified
T3 construct: also called IL-17A homodimer; IL-7A [sic]

IL-17A [2] = biological target: T3, IL-17A; assay: cell-based or functional assay

T1 sequence (P01375 whole entry): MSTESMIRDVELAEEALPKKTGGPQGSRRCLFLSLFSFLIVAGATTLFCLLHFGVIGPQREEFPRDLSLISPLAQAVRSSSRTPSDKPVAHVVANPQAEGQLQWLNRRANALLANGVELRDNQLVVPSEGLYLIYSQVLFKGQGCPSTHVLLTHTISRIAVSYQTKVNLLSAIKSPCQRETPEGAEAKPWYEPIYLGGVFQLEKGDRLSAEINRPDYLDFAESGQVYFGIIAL
T2 sequence (P07724 25-608): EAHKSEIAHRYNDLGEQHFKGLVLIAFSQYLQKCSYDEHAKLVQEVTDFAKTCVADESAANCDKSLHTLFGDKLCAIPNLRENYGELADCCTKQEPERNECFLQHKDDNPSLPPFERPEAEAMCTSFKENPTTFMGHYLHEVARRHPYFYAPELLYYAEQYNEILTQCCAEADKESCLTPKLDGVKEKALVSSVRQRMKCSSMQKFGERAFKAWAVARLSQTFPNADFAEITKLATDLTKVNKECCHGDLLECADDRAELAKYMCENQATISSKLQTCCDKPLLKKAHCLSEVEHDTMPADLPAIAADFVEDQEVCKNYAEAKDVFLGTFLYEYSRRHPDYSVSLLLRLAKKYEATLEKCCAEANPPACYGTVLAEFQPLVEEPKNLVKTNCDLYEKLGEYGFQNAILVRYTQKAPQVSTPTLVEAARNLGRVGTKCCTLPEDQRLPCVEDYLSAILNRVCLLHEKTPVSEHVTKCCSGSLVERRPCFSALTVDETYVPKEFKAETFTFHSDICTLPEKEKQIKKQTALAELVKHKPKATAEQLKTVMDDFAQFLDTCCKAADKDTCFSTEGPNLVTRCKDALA
T3 sequence (Q16552 24-155): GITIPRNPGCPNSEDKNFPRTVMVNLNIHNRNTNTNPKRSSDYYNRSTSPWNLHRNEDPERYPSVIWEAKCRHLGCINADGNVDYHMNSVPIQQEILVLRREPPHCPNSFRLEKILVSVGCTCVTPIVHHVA

| Binder | Kd (human TNFα) [nM] | koff (human TNFα) [s⁻¹] | kon (human TNFα) [M⁻¹ s⁻¹] | Kd (mouse serum albumin) [nM] | koff (mouse serum albumin) [s⁻¹] | kon (mouse serum albumin) [M⁻¹ s⁻¹] | Kd (IL-17A [1]) [nM] | IC50 of inhibition of IL-6 release from human dermal fibroblasts stimulated with IL-17A and TNFα (blocks IL-17A with IL-17RA) (IL-17A [2]) [nM] |
| --- | --- | --- | --- | --- | --- | --- | --- | --- |
| B1 | 0.221 | 9.9e-05 | 447000 |  |  |  |  |  |
| B2 |  |  |  | 370 | 0.00166 | 4500 | 275 | 38 |
